Read-outs that look alike come from different tables or passages of the source.
Assays:
[1] = target: human carbonic anhydrase XII, catalytic domain (human)
[2] = target: human carbonic anhydrase XII, catalytic domain (human); assay: other fluorescence titration

Kd [1]: 3.3 µM
Kd [2]: 6 µM
Substance: polylysine (peptide)

Reference: article PMC3181075
